# Article PMC7954794, “Protein context shapes the specificity of SH3 domain-mediated interactions in vivo” (Nature Communications, 2021)
# Tested on: growth of yeast strains under 51 stress conditions
# Test: Growth assays in 51 stress conditions (Fig. 1E-F, S2D, S5B)
# Type: cell-based, Saccharomyces cerevisiae
# Parameters: key to Growth (Fig. S2D) / growth of ABP1 SH3-swapped strains in stress condition: log2 colony size, average of median per strain (growth score)
# Settings: for Growth (Fig. S2D): ABP1 SH3-swapped strains; for growth of ABP1 SH3-swapped strains in stress condition: FigS2D
# How it was run: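 Yeast WT, SH3-deleted, KO, SH3-swapped and SH3-shuffled strains pinned in 1536 format, 12 replicates each; pregrown on YPD 2 days at 30 °C, then replicated onto 51 media at 37 °C and imaged every 2 h. Growth score = mean of per-plate median log2 colony size at 74 h.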
molecule,measurement,setting,value
"BOI1 (protein, UniProt P38041 1-980, looked up) BEM1-interacting protein 1: MSLEGNTLGKGAKSFPLYIAVNQYSKRMEDELNMKPGDKIKVITDDGEYNDGWYYGRNLRTKEEGLYPAVFTKRIAIEKPENLHKSPTQESGNSGVKYGNLNDSASNIGKVSSHQQENRYTSLKSTMSDIDKALEELRSGSVEQEVSKSPTRVPEVSTPQLQDEQTLIQEKTRNEENTTHDSLFSSTADLNLSSESLKNISKSNISTKSLEPSSESVRQLDLKMAKSWSPEEVTDYFSLVGFDQSTCNKFKEHQVSGKILLELELEHLKELEINSFGIRFQIFKEIRNIKSAIDSSSNKLDADYSTFAFENQAAQLMPAATVNRDEIQQQISSKCNKLSSESSDRKSSSVTTELQRPSSVVVNPNFKLHDPAEQILDMTEVPNLFADKDIFESPGRAPKPPSYPSPVQPPQSPSFNNRYTNNNARFPPQTTYPPKNKNPTVYSNGLIPNSSTSSDNSTGKFKFPAMNGHDSNSRKTTLTSATIPSINTVNTDESLPAISNISSNATSHHPNRNSVVYNNHKRTESGSSFVDLFNRISMLSPVKSSFDEEETKQPSKASRAVFDSARRKSSYGHSRDASLSEMKKHRRNSSILSFFSSKSQSNPTSPTKQTFTIDPAKMTSHSRSQSNSYSHARSQSYSHSRKHSLVTSPLKTSLSPINSKSNIALAHSETPTSSNNKEAVSQPSEGKHKHKHKHKSKHKHKNSSSKDGSSEEKSKKKLFSSTKESFVGSKEFKRSPSELTQKSTKSILPRSNAKKQQTSAFTEGIRSITAKESMQTADCSGWMSKKGTGAMGTWKQRFFTLHGTRLSYFTNTNDEKERGLIDITAHRVLPASDDDRLISLYAASLGKGKYCFKLVPPQPGSKKGLTFTEPRVHYFAVENKSEMKAWLSAIIKATIDIDTSVPVISSYATPTIPLSKAQTLLEEARLQTQLRDAEEEEGRDQFGWDDTQNKRNSNYPIEQDQFETSDYLESSAFEYPGGRL",Growth (Fig. S2D),Bathophenanthroline.0.1uM,10.8558
same,Growth (Fig. S2D),Bathophenanthroline.10uM,10.6819
same,Growth (Fig. S2D),Bathophenanthroline.1uM,10.8124
same,Growth (Fig. S2D),CaCl2.100mM,10.8898
same,Growth (Fig. S2D),CaCl2.250mM,10.7569
same,Growth (Fig. S2D),CaCl2.500mM,10.2369
same,Growth (Fig. S2D),Caffein.10mM,9.961
same,Growth (Fig. S2D),Caffein.2mM,10.9473
same,Growth (Fig. S2D),CdCl2.100uM,9.222
same,Growth (Fig. S2D),CdCl2.10uM,10.8438
same,Growth (Fig. S2D),CdCl2.50uM,9.731
same,Growth (Fig. S2D),CuSO4.1mM,10.511
same,Growth (Fig. S2D),CuSO4.5mM,7.921
same,Growth (Fig. S2D),Cycloheximide.0.05.uM,11.026
same,Growth (Fig. S2D),Cycloheximide.0.2.uM,10.6068
same,Growth (Fig. S2D),Cycloheximide.0.5.uM,10.1487
same,Growth (Fig. S2D),DMSO.2.,10.9996
same,Growth (Fig. S2D),DMSO.6.,9.7528
same,Growth (Fig. S2D),DMSO.8.,9.017
same,Growth (Fig. S2D),Ethanol.2.,10.7382
same,Growth (Fig. S2D),Ethanol.6.,10.327
same,Growth (Fig. S2D),Ethanol.8.,10.13
same,Growth (Fig. S2D),Galactose.2.,10.7623
same,Growth (Fig. S2D),Glycerol.2.,9.776
same,Growth (Fig. S2D),Hydroxyurea.25mM,10.8154
same,Growth (Fig. S2D),Hygromycin.190uM,11.0114
same,Growth (Fig. S2D),Hygromycin.19uM,10.9627
same,Growth (Fig. S2D),Hygromycin.95uM,10.9456
same,Growth (Fig. S2D),MMS.0.004.,11.0063
same,Growth (Fig. S2D),MMS.0.02.,10.7015
same,Growth (Fig. S2D),MMS.0.04.,10.0905
same,Growth (Fig. S2D),Menadione.100uM,10.612
same,Growth (Fig. S2D),Menadione.200uM,10.4246
same,Growth (Fig. S2D),Menadione.50uM,10.8341
same,Growth (Fig. S2D),NaCl.0.25M,10.7827
same,Growth (Fig. S2D),NaCl.1M,9.573
same,Growth (Fig. S2D),Nitroquinoline.10uM,10.6267
same,Growth (Fig. S2D),Nitroquinoline.50uM,10.6407
same,Growth (Fig. S2D),Nystatin.0.01uM,11.0406
same,Growth (Fig. S2D),Nystatin.0.1uM,11.0134
same,Growth (Fig. S2D),Raffinose.2.,11.0354
same,Growth (Fig. S2D),Rapamycin.10nM,9.9199
same,Growth (Fig. S2D),Rapamycin.50nM,9.475
same,Growth (Fig. S2D),SC.pH3,10.3897
same,Growth (Fig. S2D),SC.pH6,10.9841
same,Growth (Fig. S2D),SDS.0.01.,10.9238
same,Growth (Fig. S2D),SDS.0.02.,11.0048
same,Growth (Fig. S2D),SDS.0.05.,10.8898
same,Growth (Fig. S2D),Sorbitol.10mM,10.9854
same,Growth (Fig. S2D),Sorbitol.1mM,11.0069
same,Growth (Fig. S2D),Sorbitol.5mM,10.9417
"YSC84 (protein, UniProt P32793 1-468, looked up) Protein YSC84: MGINNPIPRSLKSETKKAAKVLRSFVKPNQVFGADQVIPPYVLKRAKGLAIITVLKAGFLFSGRAGSGVIVARLKDGTWSAPSAIAMAGAGAGGMVGVELTDFVFILNSEEAVRSFSEFGTITLGGNVSVSAGPLGRSAEAAASASTGGVSAVFAYSKSKGLFAGVSVEGSAILERREANRKFYGDNCTSKMILSGRVKVPPAADPLLRILESRAFNFTRHDHDDNASGDDFYDDGQYSDNTSHYYDDIPDSFDSTDESSTRPNTRSSRRRGMSLGSRSRYDDDYDDDGYGRGRGYGDFDSEDEDYDYGRSPNRNSSRNRGPQIDRGTKPRANTRWEDDLYDRDTEYSRPNHSGRDYDNTRGNRRGYGRERGYSLGHGPTHPSNMSNVDDLSHKMSKTGLGNESTATNSATPTAVALYNFAGEQPGDLAFKKGDVITILKKSDSQNDWWTGRTNGKEGIFPANYVRVS",growth of ABP1 SH3-swapped strains in stress condition,Bathophenanthroline.0.1uM,10.863
same,growth of ABP1 SH3-swapped strains in stress condition,Bathophenanthroline.10uM,10.6791
same,growth of ABP1 SH3-swapped strains in stress condition,Bathophenanthroline.1uM,10.8306
same,growth of ABP1 SH3-swapped strains in stress condition,CaCl2.100mM,10.8211
same,growth of ABP1 SH3-swapped strains in stress condition,CaCl2.250mM,10.7492
same,growth of ABP1 SH3-swapped strains in stress condition,CaCl2.500mM,10.2924
same,growth of ABP1 SH3-swapped strains in stress condition,Caffein.10mM,10.0875
same,growth of ABP1 SH3-swapped strains in stress condition,Caffein.2mM,11.0461
same,growth of ABP1 SH3-swapped strains in stress condition,CdCl2.100uM,9.612
same,growth of ABP1 SH3-swapped strains in stress condition,CdCl2.10uM,10.8942
same,growth of ABP1 SH3-swapped strains in stress condition,CdCl2.50uM,9.965
same,growth of ABP1 SH3-swapped strains in stress condition,CuSO4.1mM,10.4219
same,growth of ABP1 SH3-swapped strains in stress condition,CuSO4.5mM,8.049
same,growth of ABP1 SH3-swapped strains in stress condition,Cycloheximide.0.05.uM,11.0738
same,growth of ABP1 SH3-swapped strains in stress condition,Cycloheximide.0.2.uM,10.6488
same,growth of ABP1 SH3-swapped strains in stress condition,Cycloheximide.0.5.uM,10.1375
same,growth of ABP1 SH3-swapped strains in stress condition,DMSO.2.,11.0761
same,growth of ABP1 SH3-swapped strains in stress condition,DMSO.6.,9.8918
same,growth of ABP1 SH3-swapped strains in stress condition,DMSO.8.,9.375
same,growth of ABP1 SH3-swapped strains in stress condition,Ethanol.2.,10.7982
same,growth of ABP1 SH3-swapped strains in stress condition,Ethanol.6.,10.2832
same,growth of ABP1 SH3-swapped strains in stress condition,Ethanol.8.,10.0513
same,growth of ABP1 SH3-swapped strains in stress condition,Galactose.2.,10.753
same,growth of ABP1 SH3-swapped strains in stress condition,Glycerol.2.,9.905
same,growth of ABP1 SH3-swapped strains in stress condition,Hydroxyurea.25mM,10.7776
same,growth of ABP1 SH3-swapped strains in stress condition,Hygromycin.190uM,10.9721
same,growth of ABP1 SH3-swapped strains in stress condition,Hygromycin.19uM,10.9865
same,growth of ABP1 SH3-swapped strains in stress condition,Hygromycin.95uM,11.0398
same,growth of ABP1 SH3-swapped strains in stress condition,MMS.0.004.,10.997
same,growth of ABP1 SH3-swapped strains in stress condition,MMS.0.02.,10.758
same,growth of ABP1 SH3-swapped strains in stress condition,MMS.0.04.,10.0132
same,growth of ABP1 SH3-swapped strains in stress condition,Menadione.100uM,10.5944
same,growth of ABP1 SH3-swapped strains in stress condition,Menadione.200uM,10.563
same,growth of ABP1 SH3-swapped strains in stress condition,Menadione.50uM,10.853
same,growth of ABP1 SH3-swapped strains in stress condition,NaCl.0.25M,10.8517
same,growth of ABP1 SH3-swapped strains in stress condition,NaCl.1M,9.6266
same,growth of ABP1 SH3-swapped strains in stress condition,Nitroquinoline.10uM,10.6185
same,growth of ABP1 SH3-swapped strains in stress condition,Nitroquinoline.50uM,10.6333
same,growth of ABP1 SH3-swapped strains in stress condition,Nystatin.0.01uM,10.9762
same,growth of ABP1 SH3-swapped strains in stress condition,Nystatin.0.1uM,10.9958
same,growth of ABP1 SH3-swapped strains in stress condition,Raffinose.2.,11.0249
same,growth of ABP1 SH3-swapped strains in stress condition,Rapamycin.10nM,9.871
same,growth of ABP1 SH3-swapped strains in stress condition,Rapamycin.50nM,9.5402
same,growth of ABP1 SH3-swapped strains in stress condition,SC.pH3,10.4227
same,growth of ABP1 SH3-swapped strains in stress condition,SC.pH6,10.9991
same,growth of ABP1 SH3-swapped strains in stress condition,SDS.0.01.,11.0315
same,growth of ABP1 SH3-swapped strains in stress condition,SDS.0.02.,11.0179
same,growth of ABP1 SH3-swapped strains in stress condition,SDS.0.05.,10.9653
same,growth of ABP1 SH3-swapped strains in stress condition,Sorbitol.10mM,10.9675
same,growth of ABP1 SH3-swapped strains in stress condition,Sorbitol.1mM,11.0498
same,growth of ABP1 SH3-swapped strains in stress condition,Sorbitol.5mM,10.8766
